Laboratory results from US9790551B2, “Use of TRPC6 mRNA levels in peripheral blood cells for early detection/diagnosis of senile dementia” (Aging Wise Biotechnology, Inc., priority 2013, dated 2017).

How the values were obtained:
Type in all cases: cell-based
[1] = test system: Aβ levels in HEK293APP stable cells; assay: Aβ ELISA of culture medium, HEK293APP stable cells transfected with TRPC plasmids; details: Table 1; HEK293APP stable cell, 1 ug plasmid, medium ELISA after 48 hr; empty vector = 1
Description: (§1) Upon collecting the culture medium of the cells, Aβ40 and Aβ42 levels were quantified with sandwich ELISA kit, respectively (purchased from Invitrogen). The forebrain of the mouse was dissected and separated, and then homogenized with GuHCL. After that, total Aβ was determined by ELISA. For determining TBST(Tris-Buffered Saline and 1% TritonX100, 1% SDS, 1% DOC) soluble and insoluble Aβ, upon TBST homogenation and centrifugation of the forebrain of the mouse, the supernatant was determined for TBST soluble Aβ by ELISA, and the precipitate was determined for TBST insoluble Aβ by ELISA upon another GuHCL homogenate.
(§2) HEK293APP stable cell line was cultured in DMEM culture solution (containing 200 ng/ml G418) with 10% FBS. C0S7C99 cells were cultured in MEM/F12 culture solution (containing 0.4 ug/ml hygromycin B) with 5% FBS, 1% NEAA, and 200 mM Glutamax. All the transfection was conducted by using Lipofectamin 2000 (Invitrogen).
HEK293 cells were inoculated to 60 mm dishes. When the density was close to 80%, 4 ug APP plasmid was transfected with Lipofectamine 2000. After 4 h, the culture medium was replaced and 400 ng/ml of G418 was added. Cells were passage 2 days later and G418 in the culture was maintained at 400 ng/ml. After 2-3 weeks, the cells not transected died gradually, and the survived cells were HEK293 cells expressing APP. Then, G418 was reduced to and maintained at 200 ng/ml.
TRPC6 or TRPC5 was overexpressed in HEK293APP stable cell lines respectively (Cells were passaged into 12-well plates till the densities were close to 80%. Each well was transfected with 1 ug plasmid using Lipofectamine 2000, and the Aβ levels in the medium were determined with ELISA after 48 hr).
Afterwards, HEK293APP stable cells were passaged in 12-well plate till the density approached 80%. Each well was transfected with lug plasmid using Lipofectamine 2000, and the Aβ levels in the culture medium were determined with ELISA after 48 h. The targeting fragment was primarily narrowed down to 437-507aa.
The […] of TRPC6 contains the first transmembrane regions(TM1), the first extracellular loop (Loop1), and the second transmembrane regions (TM2). To further narrow down the active domain, we constructed 3 variant plasmids, with TM2 region replacement by TM1 region (C6-mut1), reversal of TM2 sequence (C6-mut2) or point mutations within TM2 region(C6-mut3). Then HEK293APP stable cells were passaged in 12-well plate. When the density was close to 80%, every well was transfected with lug plasmid using Lipofectamine 2000, and the Aβ levels in the medium were determined with ELISA after 48 h. The active fragment was further narrowed down to 487-507aa.

[2] = test system: γ-secretase cleavage of Notch; assay: NICD immunoblotting after co-transfection of TRPC6 and Notch plasmids; details: immunoblotting 48 h after transfection, 1 ug TRPC6 and 1 ug Notch plasmids
Description: Cells were passaged in 12-well plate till the density approached 80%. Each well was transfected with 1 ug of TRPC6 and 1 ug of Notch plasmids using Lipofectamine 2000. Immunoblotting was used to examine the expression of Notch protein 48 h later. Wherein, NICD (notch intracellular domain) is the intracellular fragment produced by γ-secretase cleavage of Notch ΔE-myc, reflecting the level of γ-secretase cleavage of Notch.

[3] = test system: γ-secretase cleavage of C99; assay: Aβ ELISA, COS7-C99 stable cells overexpressing TRPC6; details: Table 3, 1 ug plasmid, 48 h, empty vector = 1
Description: as §1, §2
C0S7C99 cells overexpressing TRPC6 were obtained by cell-transfection through general method 9 (n=5). The cells were passaged in 12-well plate till the density approached 80%. Each well was transfected with 1 ug plasmid using Lipofectamine 2000, and the Aβ levels in the culture medium were determined with ELISA after 48 h.

[4] = test system: γ-secretase cleavage of C99; assay: C99-GVP/UAS-luciferase reporter assay with TRPC6 plasmid; details: Table 3; luciferase activity, lysed 24 hours after transfection; empty vector = 1
Description: HEK293APP were transfected with C99-GVP/UASLuciferase, CTRL or TRPC6 plasmids, and were lysed 24 hours later. The luciferase activities were determined using the Luciferase assay system (purchased from Promega). β-gal was co-transfected to normalize the transfection efficiency.

B1: TRPC6: transient receptor potential canonical 6 protein, overexpressed from plasmid; SEQ ID NO.:5 (protein, listed as Mus musculus)
chain: MSQSPRFVTRRGGSLKAAPGAGTRRNESQDYLLMDELGDDGYPQLPLPPYGYYPSFRGNENRLTHRRQTILREKGRRLANRGPAYMFNDHSTSLSIEEERFLDAAEYGNIPVVRKMLEECHSLNVNCVDYMGQNALQLAVANEHLEITELLLKKENLSRVGDALLLAISKGYVRIVEAILNHPAFAEGKRLATSPSQSELQQDDFYAYDEDGTRFSHDVTPIILAAHCQEYEIVHTLLRKGARIERPHDYFCKCTECSQKQKHDSFSHSRSRINAYKGLASPAYLSLSSEDPVMTALELSNELAVLANIEKEFKNDYRKLSMQCKDFVVGLLDLCRNTEEVEAILNGDAETRQPGDFGRPNLSRLKLAIKYEVKKFVAHPNCQQQLLSIWYENLSGLRQQTMAVKFLVVLAVAIGLPFLALIYWCAPCSKMGKILRGPFMKFVAHAASFTIFLGLLVMNAADRFEGTKLLPNETSTDNARQLFRMKTSCFSWMEMLIISWVIGMIWAECKEIWTQGPKEYLFELWNMLDFGMLAIFAASFIARFMAFWHASKAQSIIDANDTLKDLTKVTLGDNVKYYNLARIKWDPTDPQIISEGLYAIAVVLSFSRIAYILPANESFGPLQISLGRTVKDIFKFMVIFIMVFVAFMIGMFNLYSYYIGAKQNEAFTTVEESFKTLFWAIFGLSEVKSVVINYNHKFIENIGYVLYGVYNVTMVIVLLNMLIAMINSSFQEIEDDADVEWKFARAKLWFSYFEEGRTLPVPFNLVPSPKSLLYLLLKFKKWMCELIQGQKQGFQEDAEMNKRNEEKKFGISGSHEDLSKFSLDKNQLAHNKQSSTRSSEDYHLNSFSNPPRQYQKIMKRLIKRYVLQAQIDKESDEVNEGELKEIKQDISSLRYELLEEKSQNTEDLAELIRKLGERLSLEPKLEESRR
Aβ40 [1]: 0.6839 ± 0.07359 | Aβ42 [1]: 0.6734 ± 0.06994 | NICD level (γ-secretase cleavage of NotchΔE-myc) [2]: did not affect NICD level | Aβ40 [3]: 0.5949 ± 0.06435 | Aβ42 [3]: 0.5805 ± 0.04428 | C99-GVP/UAS-Luciferase reporter system [4]: 0.4650 ± 0.02628
